Experiment: soluble fraction after stress (log2 fold change); higher = more stays soluble; pooled small domains, quantitative proteomics
Conditions: stress: 75 degC
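Further: 20 min heating vs room temperature control held 20 min.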

Sequence	soluble fraction (log2)
HMHKLTIEEALNYKTPANAGGPYSGKPFRDIYDQRGKAAVISFAKYYLSKATPEDPMVEVYRTLLDGAMEL	-1.61
HMHKREKSFFETIYDDIPGIGKKRRVQLLSAYPTLDSLKSVTLEELKQIVPEESAKLILEKRDSR	0.0151
HMHPARITATVRVGEGDLVDIEREAELGGPIHSKGVMILSSFLGARYARTVPLSLSASLVFEQSY	0.0581
HMHPDALTEREREVLSLLADGLSNREIAARLVLALGTVKWYISVIYSKLGVTRRTQAIARARELHLV	-0.0116
HMHPEETVNLILDAAFRLFLEKGYEHTSIQDIIGQLGGLSKGAIYHHFNSKEDILIAVTDRMTA	-2.12
HMHPEQTLEKIVDISAELFAKKGYEQTSIQDILDATGLSKGGLYHHFKSKEEILEAVMQKRVQY	-0.154
HMHPFELNTVTEGQLKRLPFLSDLQIRELLEYRSRYGKMLTLYELKNVEAFDLETISLLVPFIYISEI	-1.36
HMHPKTPDELLALMSEEQRGQIEQLAKLVLMAVSYSGASYYDAVTTMYPRMSEERRRIITHVLNTASP	-0.908
HMHPLFRVVLAGEPNGVGLDDWLTRHEAELINGPSAIGVLTVKIAMGRRSFETVLDEIRADGETIFVEPV	-3.49
HMHPTDMKLTARLEEGAQFVRTQQLSKAIEIFTEVIKLDQNWAEAWNKRATVFYMMGKFKQSQEDIDKVLA	0.0611
HMHPTEKNLTSLLADGSFYMNQNKLETAYDTFTKTIELDPSWAEAWNKRATVLYLMGKYELSQADIDQV	0.0869
HMHPVTGRIGTVTAANGLNLRADSSEYANVVATLGYGVDVTVTGERINGFYPVRVGTLSGYVSADYVSFNS	-1.23
HMHQVHKIDGVKYYLHLVEKGNTLYGISKQYNVSVERIEKANTEALSDGLKENQTLLIPVTSDNKKT	-0.537
HMHREITGSLAERNGRYTAILNLYDEDGKRRQKSIALGIPVKGNKRKAQAQLEELKRAYSLGLPQ	-0.346
HMHRGTPASIIAAAKQYLTGGQTVELYEREGGPWTFRLRTYLSETPYPEKVRASVEALKPAGVVFLYELQS	-0.019
HMHRIKRRNDTLVSALDSIAGIGAKRKKALLQHFGSVRAIKAVSAEEIAKVEGISPTLANQIFEAL	-1.07
HMHRTMFYLDVDLAEGQSVKMAVHEDDDPGELAARFADEHQLKSRAMEKLRSVIEENVRLHRRNQ	-0.57
HMHRTRNAERTRAAVLKAAAEVLAERGTGASLARIAEVAGVSKSGLLHHFANREQLIVALLED	-1.16
HMHSIFPVIRSTSFPTKSNDGELFITSDHTAETRIYYALDLGNTYRLIDQKVMNEINLTESLVKETARF	-1.72
HMHSILDDIEGIGPARRKALMRHYMNLDAIKSATVEELAAVPSMNEKSAKAVHNFFHQQKKD	0.0285
HMHSKQRDAIFENLRSRKDHPTAEEIYLSLKPAMPAISLATVYRNLAQLENEGLILRLGSGGSARYDGDT	-0.467
HMHSLGDQVFETIKELIVNNTYQPGELLQIDKLAAEFGVSTTPVREALLRLEGLGLVDIERNKAAVVT	0.447
HMHSPLLDRYLAEVGWRLRHLSGAQREDILAGLREHIADLESAGVAPEEIVARLGSPESVADAAAGEF	-0.0802
HMHSPTFYVHVVGQVKVPGVYELEVGSRLFDAVIAAGGFKDDADQASVNLARPLSDGEQIVVLKLGDQ	-0.777
HMHTADDFKQLAKQTSNGQLRTRYLALYLFKNGETRTQIATYLGVARGSVNTWVSNYLAHGLEGLQSKP	-2.95
HMHTSEDLEKLLTRYFQSHESINRQQFEQLSGFTRTTASRRLKALVEAGKLKNIGLHHFPVYKPTEGNF	-0.485

Sequence	soluble fraction (log2)
HMHVGVWIMNEKGEILLEQRASNKKVDPNKWARIGGHVDAGEKPIQAIQREILEEIGVKIPLENFIVLET	-0.266
HMHVLAVDEALHKLTELNELHAKIVEMRFFSGMTVQEVADELGVSKRKIESEWTMIKAWLRKELN	-0.199
HMHVSLSGKIHSELRKLILNGELKAGERLPSEPDLAHELGVSRNSLREAIGLLQREGLLLKKHGIGTFVTD	-1.42
HMHVYQSLVTDRVVPGGGYRTTEAILSTEAWRNTLLEQAKRELIGVRNKYASLTELAKVWTAIDTVT	-1.65
HMHYALTVDFPAALEARIDPAHRAALRGVLAHDPRPSYQSDPERLYGVAFAGKNVKFTVEDGVLTVRKIEE	-0.151
HMHYKLIIFENHTKSTSLDITPEQARQILGVTDYTPEQYEILAEITNRPASYFMDDLVDYYVD	-2.33
HMHYNMNYLENLTKTELFDLAKNKFGLTYAEMERHLSIPEGGARYAIKAEHSKYGSDIKKYLVEFLLE	-1.06
HMIADPAKPDWTTILAPVTTGTTVTHKTFGQGTVTKLDKTKKYLTVSFAAGQKNFVFPNAFIDGFLK	-0.159
HMIADSSSIHQDAKQQLHSYLRTNIQPLMRAGKQLDLKDILHHVTIRKPKLVQQLGMKQVQHMVQVLLD	-1.04
HMIAGHLQEKKGFFYIVLSYPDAAGKRKTKWFPTKLSVKGNKKKAEVMLMDARKTFVPPETPL	-0.497
HMIAITVGSKVRVKAGATFSDGTKPFTEVYNTVYDVQLLSRNGKEARIGIGEQWTGWMYISDLYPADQ	-3.42
HMIAPQISSGKVNTKELNVRSGPATTFGIVKKLPLNAMVGIFEEKNGWFRIATGQWVSKTYVDL	-2.33
HMIAVLEEGSRFRAINDISGKPFGPEMIIKNGQVIAAGKKILTKPKKLIGKKEGTKFNISGKEYVIKDI	-0.747
HMIAWNFDTMKESLSEMERVDYQEFIKAFLSLELSISDRTILNQVYQDYMDEDDLSLISDELRV	0.0602
HMIDDNTIIQIGDSYSKSIRLLGEPIELKNRSLNQKSYFMAVYDFKGRRYRLFFENDVLFDILRD	-2.66
HMIDELLDPTHRIMVRHPRVDYVSPGFLIGPDKDVILWGFTGGIIARLFDFLGWTRPWDQSHVQDLPPYML	-0.245
HMIDENILSEEIKHYIETNNYAKDDKLPSERSLASLFNVSRALVRKSLISLVDVNYLYVKDKSGYYING	-0.0579
HMIDEPENLIQEDKMVNIIYDLALLEGVKTFNSSNFQSVKSNDFVYKKYKIDSLQFAKSTQFYASDINR	0.0618
HMIDFDEIEILSSSKIEKIENSEYLKSSIFEKDSNQYIYRLSFENRDQLKNFKKEIEDIDQIKKIDVTY	0.0545
HMIDHKVIRSFRQKRNMTLQELAQKANLSVSYLSEIELGKKQPSLETLDKLSKALNISLEGL	-0.535
HMIDHLPPQRAAVLAFLQRELVAGRSPSLAEIALAFGFASRNAAQKHVQALVADGLLEQATGRSRGLRLPG	-2.17
HMIDIGSKIKKLRSKKSIEIGKKYTGAMLANELGISRSYLGDIESGRTVPNEIILGKIADIFDVDIYELIG	-1.06
HMIDLPEAFIQQLKEAVDVGDVTGLRELLGQLRRRYPQQSALSDEAERLLREFDFERLAQLFEGLD	-1.67
HMIDNFFTIRFNYSKINEVIRLLKEFNGEIFNKNYDKNEYIIEFSIPKKDAALLISKLKNITGLTIEQ	-1
HMIDQIAEQLQQRLAVDTAFATIQRDYPDVIANKDIELLTAIKVNQKIAEGASRASAMLESAKEVYETL	0.196
HMIDRPLTLVEDYERFAGELAKITLRFMLDGRKRFNGRLAGFDEDGKIVLETSFGRFAFSFDEIDSARI	-3.08

Sequence	soluble fraction (log2)
HMIDSVFASYRQVALDDELWDKVRNGAVLPKVELFEVMDGPVLFTYQSKIVAMYEPHPTKAGYIKPRKMFL	-2.09
HMIDTTKILPGQEFKNMQELSVALTGQKMPAGKGYVLQQEKFKLYFSWKKITGTHKLIIDEIYEEPKT	-3.23
HMIDYIKYTVDGKTYELINNWDGTWSRELEAPLVAGRYDLLLEISQNGLVTYIDSSDPRYEFYLDVI	-3.02
HMIEESTVPDLKGKSQEDAIKLLEDANLKYQIVEEESKKIEAGYVISQETDANKKVNAGDTVIIHVST	0.645
HMIEFYTMQDMFYFKLTGDNTSRERREALGKILGIGYGNATQMVSRLNNYGISKEEFSKAIEEIEKQLEA	-2.89
HMIEIKNLSFSYGKKKQSVFNDFSLTLDKGSVYGLLGKNGTGKSTLLYLMTGLLRPQAGQVLYKGVDVS	0.141
HMIEKVNDYVVRFANVNGTGSASANNLFALAIYRMGVPVTPKNIFPSNIQGLPTWFEVRVSGSGYLARRG	0.162
HMIELDRTNLLGVFGPKSRPYALLMLSNGEMIKISIGDQFFGWRVYGIDEKSIQVQNGTKQEILRIP	-3.91
HMIENGILELKGKTGVAQTVLRPSGKVLIDDEIYDAVALTGYIEKADKVLVTKVEATQLYVEK	-0.0378
HMIERLVVSPAAGVFTKKMSVENNTRIDVGHVLGHVGETEVRSPFAGILQNYIAVDGERLTAHQPIAWLRS	-0.0936
HMIERVLRTEEHIEAFAGEEVEAKLFAPIDGKKTLRGILGGIEDGRVILTVGDTEYRIEHAKISRLTTVFD	-0.881
HMIESVMVGIKELLGDTIDQKYEKYIRLGGIPSDEVDEFNSVFSAYEKVNGNHNGKKKYDYVMNNLPIIPV	-0.574
HMIETIQVPRAFNDWHEQADKTKSVFEVYAEIEASENEKLIAWVRNNQNEFAKIWLGALIPELE	-1.7
HMIGHIGSAVMLNAKLRPRLPLLHVLALTQSLGERLSAAEAQPEVYRWSDPGQSRVIAEFEGGRLTRWRLE	-2.05
HMIGVIVDEVDPDSSLKSGDIITEVNREVILNIDDFVGLVEQIQKTGRSSLLLKILRDKKSLWVTIQFV	0.267
HMIHQIPVNVQKIRQIIGINLNENDYLNYLAKLGFVIDEGLIIVPSFRSDVKTQNDLAEEIARV	-0.547
HMIINFDAIKLTTELNKYKRHKAIPNTFFDGTYTILDVRELYNDLTPKAQKIADELIEHYNVDVK	-1.73
HMIINLGELLKMLEVNKYQDAMDALDSLIEEGGSLEKIESLHEIRQHTHAMNFREAERLLSILIESEGA	-1.73
HMIISPKKLEYRQRIINALGDRKMSLNELSKAMGYKGITTKLSFTVDDMIKSGVIEKVMVGAYAKLHIP	-2.33
HMIIVMKRNATETQIDHVVRWVESIGYRAHRSNGTEQTVVKAVGGERGGEELKYLAALSGVEKVVPIR	-1.49
HMIKDSKAAYKILGVDENATNEEIKKAYRQLVINHHPDKVSHLGEDIQRAANEKLKQINAAYDEIKKQRGF	-0.0128
HMIKEGDLVFIWNPKKGDSFLIKVQPGQSQGTHFGQIKHSEIMEHNYGEGIRTPKGQVYYLLRPTLGEFTR	-1.4
HMIKEVGYEKFMQMTEEEDIGRVEIDQEENQITFTDKDETAIYKTGMVDDPDLTERLYDAGAEFS	0.0721
HMIKIDESTLSEDELKIFEILKIEDKNIENIAIESKILPGKLLATLMNMEMKKIVVQYPGKVFGLNRKLK	-1.81

Reference: the domain aggregation screens of Martell et al. (2025)
